Results: US20240084280A1

Biological target: integrin alpha(IIb)beta(3) (UniProt P08514)
Assay: cell-based or functional assay

B1: trimucrin variant RR (protein)
chain: EAGEECDCGSPENPCCDAATCKLRPGAQCAEGLCCDQCRFKKKRTICRRAKGDRRDDRCTGQSADCPRNRLYG
- IC50: platelet aggregation (ADP-induced, platelet-rich plasma): 52.5 nM
